Assay results from patent US20020164707A1, “Calcitonin gene related peptide receptor” (Human Genome Sciences, Inc., priority 1994, published 2002).
No end group written: not given here.

Columns and labels:
[1] = biological target: T1, CGRP receptor (Homo sapiens, UniProt O60894+Q16602); experiment: [125I]CGRP binding to membranes from 293 cells (clone 22) stably transformed with CGRP receptor cDNA; conditions: for rank order of potency in competition against [125I]CGRP binding: two to three independent experiments in duplicate
T1 construct: expressed in transfected cells; host or cells: Human Kidney 293 cells (transient)
Procedure: FIG. 8. Saturation binding. […] Equilibrium binding was measured at 25° C. for 60 min. […] Data are from one experiment representative of three independent experiments done in duplicate. (B) Scatchard plot of [^125I] CGRP binding.
FIG. 9. Competition binding profiles. Competition curves for representative CGRP analogs against [^125I]CGRP binding to membranes prepared from 293 cells (clone 22 cells) stably transformed with the CGRP receptor cDNA. Each curve is representative of two to three independent experiments, each carried out in duplicate.

[2] = biological target: human CGRP receptor polypeptide (recombinant, expressed in 293 cells from construct pCDNHCGRPr) (human) (UniProt Q16602); experiment: cell-based or functional assay
Sequence of human CGRP receptor polypeptide (recombinant, expressed in 293 cells from construct pCDNHCGRPr) (human) (Q16602 22-461): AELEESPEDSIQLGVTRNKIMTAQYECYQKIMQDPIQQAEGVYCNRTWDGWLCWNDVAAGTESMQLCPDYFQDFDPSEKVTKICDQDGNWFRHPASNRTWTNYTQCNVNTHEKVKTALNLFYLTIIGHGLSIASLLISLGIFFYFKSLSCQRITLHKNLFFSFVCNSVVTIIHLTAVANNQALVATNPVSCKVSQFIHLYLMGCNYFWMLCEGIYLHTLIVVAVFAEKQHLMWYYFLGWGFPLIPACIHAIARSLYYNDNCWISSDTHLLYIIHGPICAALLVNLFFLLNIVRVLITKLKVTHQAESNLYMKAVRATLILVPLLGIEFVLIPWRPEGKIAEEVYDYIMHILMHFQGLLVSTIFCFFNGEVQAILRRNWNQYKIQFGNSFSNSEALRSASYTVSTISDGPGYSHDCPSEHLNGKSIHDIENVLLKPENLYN

T1 sequence (Q16602 23-461): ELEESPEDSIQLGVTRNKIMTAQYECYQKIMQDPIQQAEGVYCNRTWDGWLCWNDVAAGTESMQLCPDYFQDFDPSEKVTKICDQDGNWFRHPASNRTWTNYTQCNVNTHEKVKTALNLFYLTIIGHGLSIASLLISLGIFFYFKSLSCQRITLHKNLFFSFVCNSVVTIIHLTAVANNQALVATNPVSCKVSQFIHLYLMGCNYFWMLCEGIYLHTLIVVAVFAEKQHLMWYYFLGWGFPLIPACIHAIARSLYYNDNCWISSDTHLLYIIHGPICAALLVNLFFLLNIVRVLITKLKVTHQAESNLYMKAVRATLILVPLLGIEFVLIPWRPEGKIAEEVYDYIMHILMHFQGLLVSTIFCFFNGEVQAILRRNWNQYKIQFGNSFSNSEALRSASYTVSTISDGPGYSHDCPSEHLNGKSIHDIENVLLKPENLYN
T1 sequence (O60894 27-148): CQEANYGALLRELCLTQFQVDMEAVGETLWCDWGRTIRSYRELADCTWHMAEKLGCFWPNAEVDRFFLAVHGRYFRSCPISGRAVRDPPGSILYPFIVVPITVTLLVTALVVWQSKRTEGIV

Row | Compound | rank order of potency in competition against [125I]CGRP binding [1] | further results
1 | CC(C)C[C@H](NC(=O)CNC(=O)[C@H](C)NC(=O)[C@H](CC(C)C)NC(=O)[C@H](CCCNC(=N)N)NC(=O)[C@H](Cc1cnc(I)[nH]1)NC(=O)[C@@H](NC(=O)[C@@H](NC(=O)[C@@H]1CSSC[C@H](NC(=O)[C@H](C)N)C(=O)N[C@@H](CC(=O)O)C(=O)N[C@@H]([C@@H](C)O)C(=O)N[C@@H](C)C(=O)N[C@@H]([C@@H](C)O)C(=O)N1)C(C)C)[C@@H](C)O)C(=O)N[C@@H](CC(C)C)C(=O)N[C@@H](CO)C(=O)N[C@@H](CCCNC(=N)N)C(=O)N[C@@H](CO)C(=O)NCC(=O)NCC(=O)N[C@H](C(=O)N[C@H](C(=O)N[C@@H](CCCCN)C(=O)N[C@@H](CC(N)=O)C(=O)N[C@@H](CC(N)=O)C(=O)N[C@@H](Cc1ccccc1)C(=O)N[C@H](C(=O)N1CCC[C@H]1C(=O)N[C@H](C(=O)N[C@@H](CC(N)=O)C(=O)N[C@H](C(=O)NCC(=O)N[C@@H](CO)C(=O)N[C@@H](CCCCN)C(=O)N[C@@H](C)C(=O)N[C@@H](Cc1ccccc1)C(N)=O)C(C)C)[C@@H](C)O)C(C)C)C(C)C)C(C)C [[^125I] CGRP] | – | Bmax (Scatchard plot, saturation binding) ([1]; equilibrium binding at 25° C. for 60 min): 89 fmol/mg protein
2 | human CGRP (8-37) (from UniProt P06881 90-119) (peptide) | – | pA2 against CGRP-mediated cAMP accumulation in stably transformed 293 cells, 100 nM CGRP (8-37) [2]: 7.8 pA2
3 | human amylin: islet amyloid polypeptide (IAPP or amylin), human (KCNTATCATQRLANFLVHSSNNFGAILSSTNVGSNTY) | >>>> | –
4 | human calcitonin (hCT): human calcitonin | >>>> | –
5 | porcine vasoactive intestinal peptide (VIP): porcine vasoactive intestinal peptide | >>>> | –
6 | salmon calcitonin (8-32): salmon calcitonin fragment (8-32) (VLGKLSQELHKLQTYPRTNTGSGTP; ends and bridges not checked) | >>>> | –
